These results are taken from patent US20210246166A1 (Bayer, published 2021).

Numbered stars: 1 amine (or outer) side, 2 acyl side, 3 side chain; on linkers, the order of the positions; unused ones are H or OH. Bridge positions count the residues as written; N and C are the ends. Square brackets hold non-standard residues; d marks the D form. Ends that are not written are not given here. Phe(2,3-F2) = (2S)-3-(2,3-difluorophenyl)-2-aminopropanoic acid, O=C([C@H](Cc1cccc(F)c1F)N[*:1])[*:2]; X3 = (1R,3S)‑3‑(Amino)cyclopentanecarboxylic acid, O=C([C@@H]1CC[C@H](N[*:1])C1)[*:2]; X4 = (1S,3R)‑3‑(Amino)cyclopentanecarboxylic acid, O=C([C@H]1CC[C@@H](N[*:1])C1)[*:2]; X8 = (R)‑4‑Amino‑6‑methylheptanoic acid, CC(C)C[C@@H](CCC(=O)[*:2])N[*:1]; X6 = (S)‑(1-Piperidin-3-yl)‑acetic acid, O=C(C[C@@H]1CCCN([*:1])C1)[*:2]; His(τ-Bzl) = N[C@@H](Cc1cn(Cc2ccccc2)cn1)C(=O)O; Pro(4-spirocPr) = O=C(O)[C@@H]1CC2(CC2)CN1; Oic = O=C(O)[C@@H]1C[C@@H]2CCCC[C@@H]2N1; tBuAla = CC(C)(C)C[C@H](N)C(=O)O; (3-Me)H = L-3-methylhistidine; Pen = CC(C)(S)[C@H](N)C(=O)O; NMeA = CN[C@@H](C)C(=O)O; Orn = NCCC[C@H](N)C(=O)O; Nva = CCC[C@H](N)C(=O)O; Sar = CNCC(=O)O

The target in assay [1] is T1, recombinant rat MASP1 active protease (amino acids 302-704, C-terminal His Tag) (rat, UniProt Q8CHN8 302-704).
T1 sequence: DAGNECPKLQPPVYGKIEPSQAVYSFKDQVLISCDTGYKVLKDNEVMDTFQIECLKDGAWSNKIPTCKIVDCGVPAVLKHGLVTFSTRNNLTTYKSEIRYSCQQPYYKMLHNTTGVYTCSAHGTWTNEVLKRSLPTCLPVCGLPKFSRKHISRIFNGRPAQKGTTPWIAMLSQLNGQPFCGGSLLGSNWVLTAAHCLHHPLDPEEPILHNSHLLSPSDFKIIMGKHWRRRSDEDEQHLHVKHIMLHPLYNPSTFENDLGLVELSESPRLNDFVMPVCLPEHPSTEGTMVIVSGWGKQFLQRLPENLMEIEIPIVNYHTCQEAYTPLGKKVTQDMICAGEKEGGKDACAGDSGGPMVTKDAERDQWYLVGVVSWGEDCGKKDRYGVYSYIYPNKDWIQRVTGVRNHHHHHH
Briefly: cell-based or functional assay.

Assay [2] addresses recombinant rat MASP2 active protease (amino acids 296-685, C-terminal His Tag) (rat, UniProt Q9JJS8 296-685). Briefly: cell-based or functional assay.

Sequence of recombinant rat MASP2 active protease (amino acids 296-685, C-terminal His Tag) (Q9JJS8 other isoform, or with tags, fused parts or gaps limits assumed): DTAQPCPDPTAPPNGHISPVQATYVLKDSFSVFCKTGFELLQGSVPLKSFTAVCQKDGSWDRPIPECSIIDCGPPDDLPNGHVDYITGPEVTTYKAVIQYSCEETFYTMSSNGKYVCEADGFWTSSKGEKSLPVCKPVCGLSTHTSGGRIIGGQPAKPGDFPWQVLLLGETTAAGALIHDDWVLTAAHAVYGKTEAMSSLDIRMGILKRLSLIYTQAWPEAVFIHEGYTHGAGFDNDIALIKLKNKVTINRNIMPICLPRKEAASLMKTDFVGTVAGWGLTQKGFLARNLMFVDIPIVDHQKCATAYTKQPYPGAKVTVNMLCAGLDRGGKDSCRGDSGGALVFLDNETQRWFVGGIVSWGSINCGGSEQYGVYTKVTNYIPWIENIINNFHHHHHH

B1: Example 405: ((N-Me)G)-(Orn)-(Orn)-(Orn)-IC+SRSLP-(Oic)-I-(Pen)+IP-NH2 (peptide)
peptide: [Sar][Orn][Orn][Orn]ICSRSLP[Oic]I[Pen]IP-NH2
modifications: disulfide 6-14; N-terminus assumed
SMILES: CC[C@H](C)[C@H](NC(=O)[C@H](CCCN)NC(=O)[C@H](CCCN)NC(=O)[C@H](CCCN)NC(=O)CNC)C(=O)N[C@H]1CSSC(C)(C)[C@@H](C(=O)N[C@H](C(=O)N2CCC[C@H]2C(N)=O)[C@@H](C)CC)NC(=O)[C@H]([C@@H](C)CC)NC(=O)[C@@H]2C[C@@H]3CCCC[C@@H]3N2C(=O)[C@@H]2CCCN2C(=O)[C@H](CC(C)C)NC(=O)[C@H](CO)NC(=O)[C@H](CCCNC(=N)N)NC(=O)[C@H](CO)NC1=O
Regarding B1, in assay [1], the “rat MASP1 IC50” value came to 650 nM. For the same molecule, the “rat MASP2 IC50” value in assay [2] came out at 510 nM.

B2: Example 447: ((N-Me)G)-IC+SRS-((tBu)A)-PPI-(Pen)+IP-((1-Bn)H)-OH (peptide)
peptide: [Sar]ICSRS[tBuAla]PPI[Pen]IP[His(τ-Bzl)]-OH
modifications: disulfide 3-11; N-terminus assumed
SMILES: CC[C@H](C)[C@H](NC(=O)CNC)C(=O)N[C@H]1CSSC(C)(C)[C@@H](C(=O)N[C@H](C(=O)N2CCC[C@H]2C(=O)N[C@@H](Cc2cn(Cc3ccccc3)cn2)C(=O)O)[C@@H](C)CC)NC(=O)[C@H]([C@@H](C)CC)NC(=O)[C@@H]2CCCN2C(=O)[C@@H]2CCCN2C(=O)[C@H](CC(C)(C)C)NC(=O)[C@H](CO)NC(=O)[C@H](CCCNC(=N)N)NC(=O)[C@H](CO)NC1=O
Consider B2, for which, in assay [1], the “rat MASP1 IC50” value was determined as 21 nM. For the same molecule, in assay [2], the “rat MASP2 IC50” value came out at 35 nM.
As for [NMeA]ICSRS[tBuAla]P[(3R,6R)‑1,1‑Difluoro‑5‑azaspiro(2.4)heptane‑6‑carboxylic acid (enantiomer 1)]I[Pen]IP-NH2 (disulfide 3-11), the “rat MASP1 IC50” value in assay [1] was 29 nM. Moreover, the “rat MASP2 IC50” value in assay [2] worked out at 4.7 nM.
Turning to [Sar]ICSRSLP[Oic]I[Pen]IPP[(2S)‑3‑(Triazol-1-yl)‑2‑(amino)propanoic acid]-NH2 (disulfide 3-11), the “rat MASP1 IC50” value in assay [1] stood at 39 nM. For the same molecule, the “rat MASP2 IC50” value in assay [2] stood at 31 nM.
On the same counts, the results for [Sar]ICSRSLP[Oic]I[Pen]I[5‑Azaspiro(2.4)heptane‑1‑carboxylic acid]-OH (disulfide 3-11) [Example 419: ((N-Me)G)-IC+SRSLP-(Oic)-I-(Pen)+I-((5-Azaspiro[2.4]heptane-1-carboxylic acid)-OH] are 70 nM and 42 nM.

B3: Example 440: ((N-Me)G)-IC+SRS-((2S)-3-(2,3-difluorophenyl)-2-aminopropanoic acid)-PPI-(Pen)+IP-NH2 (peptide)
peptide: [Sar]ICSRS[Phe(2,3-F2)]PPI[Pen]IP-NH2
modifications: disulfide 3-11; N-terminus assumed
SMILES: CC[C@H](C)[C@H](NC(=O)CNC)C(=O)N[C@H]1CSSC(C)(C)[C@@H](C(=O)N[C@H](C(=O)N2CCC[C@H]2C(N)=O)[C@@H](C)CC)NC(=O)[C@H]([C@@H](C)CC)NC(=O)[C@@H]2CCCN2C(=O)[C@@H]2CCCN2C(=O)[C@H](Cc2cccc(F)c2F)NC(=O)[C@H](CO)NC(=O)[C@H](CCCNC(=N)N)NC(=O)[C@H](CO)NC1=O
For B3, the “rat MASP1 IC50” value in assay [1] is 610 nM. In addition, in assay [2], the “rat MASP2 IC50” value turned out to be 14 nM.
Consider [NMeA]ICSRS[tBuAla]P[(3R,6R)‑1,1‑Difluoro‑5‑azaspiro(2.4)heptane‑6‑carboxylic acid (enantiomer 2)]I[Pen]IP-NH2 (disulfide 3-11), for which, in assay [1], the “rat MASP1 IC50” value came out at 150 nM. Besides, in assay [2], the “rat MASP2 IC50” value came to 94 nM.
On the same counts, the results for [(3-Me)H]ICSRSLP[Oic]I[Pen]IP-NH2 (disulfide 3-11) [Example 444: ((3-Me)H)-IC+SRSLP-(Oic)-I-(Pen)+IP-NH2] are 130 nM and 9.8 nM.

B4: Example 450: ((N-Me)G)-IC+SRSLP-(Oic)-I-(Pen)+IP-((R)-4-Amino-6-methylheptanoic acid)-OH (peptide)
peptide: [Sar]ICSRSLP[Oic]I[Pen]IP[X8]-OH
modifications: disulfide 3-11; N-terminus assumed
SMILES: CC[C@H](C)[C@H](NC(=O)CNC)C(=O)N[C@H]1CSSC(C)(C)[C@@H](C(=O)N[C@H](C(=O)N2CCC[C@H]2C(=O)N[C@H](CCC(=O)O)CC(C)C)[C@@H](C)CC)NC(=O)[C@H]([C@@H](C)CC)NC(=O)[C@@H]2C[C@@H]3CCCC[C@@H]3N2C(=O)[C@@H]2CCCN2C(=O)[C@H](CC(C)C)NC(=O)[C@H](CO)NC(=O)[C@H](CCCNC(=N)N)NC(=O)[C@H](CO)NC1=O
Take B4: the “rat MASP1 IC50” value in assay [1] stood at 31 nM. In assay [2], the “rat MASP2 IC50” value stood at 52 nM.

B5: Example 441: ((N-Me)G)-IC+SRS-((2S)-3-(2,3-difluorophenyl)-2-aminopropanoic acid)-P-(Oic)-I-(Pen)+IP-NH2 (peptide)
peptide: [Sar]ICSRS[Phe(2,3-F2)]P[Oic]I[Pen]IP-NH2
modifications: disulfide 3-11; N-terminus assumed
SMILES: CC[C@H](C)[C@H](NC(=O)CNC)C(=O)N[C@H]1CSSC(C)(C)[C@@H](C(=O)N[C@H](C(=O)N2CCC[C@H]2C(N)=O)[C@@H](C)CC)NC(=O)[C@H]([C@@H](C)CC)NC(=O)[C@@H]2C[C@@H]3CCCC[C@@H]3N2C(=O)[C@@H]2CCCN2C(=O)[C@H](Cc2cccc(F)c2F)NC(=O)[C@H](CO)NC(=O)[C@H](CCCNC(=N)N)NC(=O)[C@H](CO)NC1=O
For B5, in assay [1], the “rat MASP1 IC50” value was 410 nM. Also, the “rat MASP2 IC50” value in assay [2] was 120 nM.
On the same counts, the results for [Sar]ICSRSLP[Oic]I[Pen]IP[5‑Azaspiro(2.4)heptane‑1‑carboxylic acid]-OH (disulfide 3-11) [Example 438: ((N-Me)G)-IC+SRSLP-(Oic)-I-(Pen)+IP-((5-Azaspiro[2.4]heptane-1-carboxylic acid)-OH] are 31 nM and 22 nM.

B6: Example 451: ((N-Me)G)-IC+SRSLP-(Oic)-I-(Pen)+IP-((S)-(1-Piperidin-3-yl)-acetic acid)-OH (peptide)
peptide: [Sar]ICSRSLP[Oic]I[Pen]IP[X6]-OH
modifications: disulfide 3-11; N-terminus assumed
SMILES: CC[C@H](C)[C@H](NC(=O)CNC)C(=O)N[C@H]1CSSC(C)(C)[C@@H](C(=O)N[C@H](C(=O)N2CCC[C@H]2C(=O)N2CCC[C@@H](CC(=O)O)C2)[C@@H](C)CC)NC(=O)[C@H]([C@@H](C)CC)NC(=O)[C@@H]2C[C@@H]3CCCC[C@@H]3N2C(=O)[C@@H]2CCCN2C(=O)[C@H](CC(C)C)NC(=O)[C@H](CO)NC(=O)[C@H](CCCNC(=N)N)NC(=O)[C@H](CO)NC1=O
As to B6, the “rat MASP1 IC50” value in assay [1] is 46 nM. For the same molecule, in assay [2], the “rat MASP2 IC50” value was found to be 46 nM.

B7: Example 448: ((N-Me)G)-IC+RRS-((tBu)A)-PP-(Nva)-(Pen)+IP-NH2 (peptide)
peptide: [Sar]ICRRS[tBuAla]PP[Nva][Pen]IP-NH2
modifications: disulfide 3-11; N-terminus assumed
SMILES: CCC[C@@H]1NC(=O)[C@@H]2CCCN2C(=O)[C@@H]2CCCN2C(=O)[C@H](CC(C)(C)C)NC(=O)[C@H](CO)NC(=O)[C@H](CCCNC(=N)N)NC(=O)[C@H](CCCNC(=N)N)NC(=O)[C@@H](NC(=O)[C@@H](NC(=O)CNC)[C@@H](C)CC)CSSC(C)(C)[C@@H](C(=O)N[C@H](C(=O)N2CCC[C@H]2C(N)=O)[C@@H](C)CC)NC1=O
In the case of B7, the “rat MASP1 IC50” value in assay [1] turned out to be 5000 nM. For the same molecule, the “rat MASP2 IC50” value in assay [2] was determined as 5000 nM.
As for [Sar]ICSRSLP[Oic]I[Pen]IP[(2S)‑3‑(Triazol-1-yl)‑2‑(amino)propanoic acid]-NH2 (disulfide 3-11) [Example 437: ((N-Me)G)-IC+SRSLP-(Oic)-I-(Pen)+IP-((2S)-3-(Triazol-1-yl)-2-(amino)propanoic acid)-NH2], the “rat MASP1 IC50” value in assay [1] amounted to 46 nM. Moreover, the “rat MASP2 IC50” value in assay [2] was 40 nM.

B8: Example 449: ((N-Me)G)-IC+SRSLP-(Oic)-I-(Pen)+IP-((1R,3S)-3-(Amino)cyclopentanecarboxylic acid)-OH (peptide)
peptide: [Sar]ICSRSLP[Oic]I[Pen]IP[X3]-OH
modifications: disulfide 3-11; N-terminus assumed
SMILES: CC[C@H](C)[C@H](NC(=O)CNC)C(=O)N[C@H]1CSSC(C)(C)[C@@H](C(=O)N[C@H](C(=O)N2CCC[C@H]2C(=O)N[C@H]2CC[C@@H](C(=O)O)C2)[C@@H](C)CC)NC(=O)[C@H]([C@@H](C)CC)NC(=O)[C@@H]2C[C@@H]3CCCC[C@@H]3N2C(=O)[C@@H]2CCCN2C(=O)[C@H](CC(C)C)NC(=O)[C@H](CO)NC(=O)[C@H](CCCNC(=N)N)NC(=O)[C@H](CO)NC1=O
As for B8, the “rat MASP1 IC50” value in assay [1] was 45 nM. The “rat MASP2 IC50” value in assay [2] was found to be 44.5 nM.

B9: Example 452: ((N-Me)G)-IC+SRSLP-(Oic)-I-(Pen)+IP-((1S,3R)-3-(Amino)cyclopentanecarboxylic acid)-OH (peptide)
peptide: [Sar]ICSRSLP[Oic]I[Pen]IP[X4]-OH
modifications: disulfide 3-11; N-terminus assumed
SMILES: CC[C@H](C)[C@H](NC(=O)CNC)C(=O)N[C@H]1CSSC(C)(C)[C@@H](C(=O)N[C@H](C(=O)N2CCC[C@H]2C(=O)N[C@@H]2CC[C@H](C(=O)O)C2)[C@@H](C)CC)NC(=O)[C@H]([C@@H](C)CC)NC(=O)[C@@H]2C[C@@H]3CCCC[C@@H]3N2C(=O)[C@@H]2CCCN2C(=O)[C@H](CC(C)C)NC(=O)[C@H](CO)NC(=O)[C@H](CCCNC(=N)N)NC(=O)[C@H](CO)NC1=O
For B9, the “rat MASP1 IC50” value in assay [1] amounted to 36 nM. For the same molecule, the “rat MASP2 IC50” value in assay [2] stood at 37 nM.

B10: Example 439: ((N-Me)G)-IC+SRS-((tBu)A)-P-((6S)-5-Azaspiro[2.4]heptane-6-carboxylic acid)-I-(Pen)+IP-NH2 (peptide)
peptide: [Sar]ICSRS[tBuAla]P[Pro(4-spirocPr)]I[Pen]IP-NH2
modifications: disulfide 3-11; N-terminus assumed
SMILES: CC[C@H](C)[C@H](NC(=O)CNC)C(=O)N[C@H]1CSSC(C)(C)[C@@H](C(=O)N[C@H](C(=O)N2CCC[C@H]2C(N)=O)[C@@H](C)CC)NC(=O)[C@H]([C@@H](C)CC)NC(=O)[C@@H]2CC3(CC3)CN2C(=O)[C@@H]2CCCN2C(=O)[C@H](CC(C)(C)C)NC(=O)[C@H](CO)NC(=O)[C@H](CCCNC(=N)N)NC(=O)[C@H](CO)NC1=O
Regarding B10, the “rat MASP1 IC50” value in assay [1] stood at 36 nM. In assay [2], the “rat MASP2 IC50” value stood at 9.4 nM.
